Laboratory results: US20230203111A1 (published 2023)

Biological target: T1, TFR1 (human source) (human, UniProt P02786 89-760, limits assumed)
T1 construct: Soluble reagent added at 2 µg/mL to ferritin-coated ELISA plates; also called Tfr1 receptor; Tfr-1 receptor
Assay: ELISA, ferritin coated, human TFR1 2 µg/mL

T1 sequence (P02786 89-760 limits assumed): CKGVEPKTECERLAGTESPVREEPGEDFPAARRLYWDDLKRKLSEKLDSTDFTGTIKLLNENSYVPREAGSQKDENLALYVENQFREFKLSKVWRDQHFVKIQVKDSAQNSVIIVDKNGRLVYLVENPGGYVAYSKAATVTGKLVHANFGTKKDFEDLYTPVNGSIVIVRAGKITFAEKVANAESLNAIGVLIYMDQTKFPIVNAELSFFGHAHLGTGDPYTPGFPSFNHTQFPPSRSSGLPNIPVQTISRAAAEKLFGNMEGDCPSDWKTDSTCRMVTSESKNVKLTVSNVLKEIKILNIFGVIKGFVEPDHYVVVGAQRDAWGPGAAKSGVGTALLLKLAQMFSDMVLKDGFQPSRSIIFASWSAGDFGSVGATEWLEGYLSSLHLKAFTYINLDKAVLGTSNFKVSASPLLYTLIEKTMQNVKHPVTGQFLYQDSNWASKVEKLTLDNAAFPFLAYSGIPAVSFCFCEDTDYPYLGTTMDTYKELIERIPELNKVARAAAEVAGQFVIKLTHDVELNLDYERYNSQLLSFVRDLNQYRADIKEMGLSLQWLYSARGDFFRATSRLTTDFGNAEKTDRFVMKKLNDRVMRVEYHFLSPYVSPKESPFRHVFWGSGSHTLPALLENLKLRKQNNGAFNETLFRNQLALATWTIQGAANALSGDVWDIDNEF

B1: HFn-Mt-3 (ligand)
chain: TTASTSQVRQNYHQDSEAAINRQINLELYASYVYLSMSYYFDRDDVALKNFAKYFLHQSHEEREHAEKLMKLQNQRGGRICLQDIKKPDSDDWESGLNAMESALHLEKNVNQSLLELHKLATDKNDPHLSDFIETHYLNEQVKAIKELGDHVTNLRKMGAPESGLAEYLFDKHTLGDSDNES
notes: cage protein; also called HFn-Mut-3
  binding result: no binding

B2: HFn-Mt-5 (ligand)
chain: TTASTSQVRQNYHQDSEAAINRQINLELYASYVYLSMSYYFDRDDVALKNFAKYFLHQSHEEREHAEKLMKLQNQRGGRIFLCDIKKPDSDDWESGLNAMESALHLEKNVNQSLLELHKLATDKNDPHLSDFIETHYLNEQVKAIKELGDHVTNLRKMGAPESGLAEYLFDKHTLGDSDNES
notes: cage protein; also called HFn-Mut-5
  binding result: no binding
